Measured values published in publication PMC10194888 (PLOS ONE, 2023).

Experiments:
[1] = molecular target: the molecule itself; experiment: AUC; sedimentation velocity, 50,000 rpm, 20 °C, Working Buffer (20 mM HEPES, 0.1 M NaCl, pH 7.5, 2 mM n-octyl-β-D-glucopyranoside); 10 μM, 31 μM and 100 μM; c(s) analysis; monomer to dimer
O83132 = experiment: as above

B1: TP0094 (putative phosphotransacetylase, Pta) of Treponema pallidum, wild-type (enzyme, UniProt O83132 1-336, looked up)
chain: MTFVESMQRRAVLAQKRLVLPEACEQRTLEAARLIVFRNIAAKVFLVGCERDIKNTADRCGIDLTDMVVIDPSVSKHRDQFAERYFQKRKHKGISLAQAAEDMRDPLRFAAMMLDQGHADAMVAGAENTTARVLRAGLTIIGTLPSVKTASSCFVMDTNNPRLGGTRGLFIFSDCAVIPTPTAEQLADIACSAAESCRTFIGEEPTVALLSYSTKGSGGDSDENILRVREAVRILHERRVDFTFDGELQLDAALVPKITEKKAPHSPITGKVNTLVFPDLSSGNIGYKLVQRLSDADAYGPFLQGFAKPLSDLSRGCSVEDIVAACAVTLVQSNGR
notes: TP0094, putative phosphotransacetylase (Pta; EC 2.3.1.8) of Treponema pallidum; DNA fragment encoding all amino-acid residues of TP0094; also called TpPta; WT TP0094; source: E. coli BL21 AI (co-transformed with pGroESL), purified
[1]
  stoichiometry N: 2
O83132
  mass purity of the dimer: we estimate the mass purity of the dimer to range from 95–97%
